Measurements reported in IntAct's records for PubMed 10664449.

B1: Guanine nucleotide-binding protein subunit beta (Saccharomyces cerevisiae), P18851 (parent)
chain: MAAHQMDSITYSNNVTQQYIQPQSLQDISAVEDEIQNKIEAARQESKQLHAQINKAKHKIQDASLFQMANKVTSLTKNKINLKPNIVLKGHNNKISDFRWSRDSKRILSASQDGFMLIWDSASGLKQNAIPLDSQWVLSCAISPSSTLVASAGLNNNCTIYRVSKENRVAQNVASIFKGHTCYISDIEFTDNAHILTASGDMTCALWDIPKAKRVREYSDHLGDVLALAIPEEPNSENSSNTFASCGSDGYTYIWDSRSPSAVQSFYVNDSDINALRFFKDGMSIVAGSDNGAINMYDLRSDCSIATFSLFRGYEERTPTPTYMAANMEYNTAQSPQTLKSTSSSYLDNQGVVSLDFSASGRLMYSCYTDIGCVVWDVLKGEIVGKLEGHGGRVTGVRSSPDGLAVCTGSWDSTMKIWSPGYQ
partner: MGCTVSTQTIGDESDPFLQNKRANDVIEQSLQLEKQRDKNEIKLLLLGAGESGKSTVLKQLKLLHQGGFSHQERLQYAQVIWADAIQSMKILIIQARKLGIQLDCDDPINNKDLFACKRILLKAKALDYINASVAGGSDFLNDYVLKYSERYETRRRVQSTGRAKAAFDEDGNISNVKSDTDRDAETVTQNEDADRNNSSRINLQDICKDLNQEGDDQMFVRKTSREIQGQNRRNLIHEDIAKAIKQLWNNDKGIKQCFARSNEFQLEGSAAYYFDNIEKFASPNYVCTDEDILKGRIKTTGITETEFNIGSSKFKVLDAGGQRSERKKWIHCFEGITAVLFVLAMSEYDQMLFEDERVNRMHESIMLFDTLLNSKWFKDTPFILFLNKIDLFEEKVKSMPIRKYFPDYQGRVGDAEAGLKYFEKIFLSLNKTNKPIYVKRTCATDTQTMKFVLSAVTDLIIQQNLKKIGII

Variants of: B1
Details: with gpa1_yeast GPA1, P08539

effect of a mutation on the interaction	Variant
decreasing interaction	MAAHQMDSITYSNNVTQQYIQPQSLQDISAVEDEIQNKIEAARQESKQLHAQINKAKHKIQDASLFQMANKVTSLTKNKINLKPNIVLKGHNNKISDFRWSRDSKRILSASQDGFMLIWDSASGLKQNAIPFDSQWVLSCAISPSSTLVASAGLNNNCTIYRVSKENRVAQNVASIFKGHTCYISDIEFTDNAHILTASGDMTCALWDIPKAKRVREYSDHLGDVLALAIPEEPNSENSSNTFASCGSDGYTYIWDSRSPSAVQSFYVNDSDINALRFFKDGMSIVAGSDNGAINMYDLRSDCSIATFSLFRGYEERTPTPTYMAANMEYNTAQSPQTLKSTSSSYLDNQGVVSLDFSASGRLMYSCYTDIGCVVWDVLKGEIVGKLEGHGGRVTGVRSSPDGLAVCTGSWDSTMKIWSPGYQ [L132F]
